Measured values published in patent publication CN114685654A (GUANGDONG DONGSUNANG PHARMACEUTICAL CO LTD, dated 2022).

T1: 蛋白A
T1 construct: also called FGF21-Fc融合蛋白
T1 chain: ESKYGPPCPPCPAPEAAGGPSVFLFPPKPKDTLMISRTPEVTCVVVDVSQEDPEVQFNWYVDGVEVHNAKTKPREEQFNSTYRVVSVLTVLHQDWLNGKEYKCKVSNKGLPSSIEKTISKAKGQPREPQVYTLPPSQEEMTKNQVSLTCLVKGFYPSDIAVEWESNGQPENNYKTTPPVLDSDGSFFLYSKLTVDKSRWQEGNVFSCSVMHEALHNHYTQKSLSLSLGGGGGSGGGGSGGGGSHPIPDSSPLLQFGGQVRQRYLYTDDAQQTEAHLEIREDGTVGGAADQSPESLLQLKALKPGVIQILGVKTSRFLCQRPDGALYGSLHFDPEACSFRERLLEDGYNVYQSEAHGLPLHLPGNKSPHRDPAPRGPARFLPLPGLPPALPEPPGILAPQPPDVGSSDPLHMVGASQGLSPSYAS

T2: 蛋白B
T2 construct: Counter-screen protein; also called FGF21-Fc融合蛋白
T2 chain: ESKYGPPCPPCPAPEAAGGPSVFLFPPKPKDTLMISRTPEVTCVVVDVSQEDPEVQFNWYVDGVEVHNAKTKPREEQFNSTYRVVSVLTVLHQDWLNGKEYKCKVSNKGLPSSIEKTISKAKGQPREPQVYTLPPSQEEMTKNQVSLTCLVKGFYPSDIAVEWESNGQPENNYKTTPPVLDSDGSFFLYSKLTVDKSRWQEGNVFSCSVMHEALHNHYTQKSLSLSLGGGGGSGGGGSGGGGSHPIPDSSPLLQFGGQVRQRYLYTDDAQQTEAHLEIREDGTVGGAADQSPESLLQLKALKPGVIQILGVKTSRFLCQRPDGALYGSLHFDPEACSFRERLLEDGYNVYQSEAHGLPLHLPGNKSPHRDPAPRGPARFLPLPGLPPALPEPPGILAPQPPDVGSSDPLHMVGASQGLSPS


How the values were obtained:
蛋白A [1] = target: T1, 蛋白A; experiment: sandwich ELISA, antibody coated at 2 μg/mL, protein at 5 and 10 ng/mL, detection with HRP mouse anti-human IgG4 Fc
蛋白B [2] = target: T2, 蛋白B; experiment: sandwich ELISA, antibody coated at 2 μg/mL, detection with HRP mouse anti-human IgG4 Fc
蛋白B [3] = target: T2, 蛋白B; experiment: ELISA, protein coated
蛋白A [4] = target: T1, 蛋白A; experiment: ELISA, protein coated at 0.1, 1, 5 μg/mL, antibody 1 μg/mL
蛋白A [5] = target: T1, 蛋白A; experiment: indirect ELISA, hybridoma supernatant on coated protein
蛋白B [6] = target: T2, 蛋白B; experiment: as above

Row | binding result (蛋白A [4]) | Binder | binding result (蛋白B [3]) | also measured
1 | – | MM21H (antibody, V domains shown, also called MM21H鼠源单克隆抗体) VH: QIQLVQSGPELKKTGETVKMSCKASGYTFTNYGMNWVKQAPGKGLKLMGWINTYTGKPTYADDFKGRFAFSLETSASTAYLQINNLKNEDTATYFCATNYYDYDVAYWGQGTLVTVSA VL: DIVMTQAAFSNPVTLGTSASISCRSSKSLLHSNGITYLYWFLQKPGQSPQVLIYQMSSLASGVPDRFSSSGSGTDFTLRISRVEAEDVGVYYCAQTLELPTFGGGTKLEIK | – | binding result (蛋白A [1]): binds; binding result (蛋白B [2]): no binding (tested: 5ng/mL、10ng/mL)
2 | binds | MM24T (antibody, mouse IgG1, kappa, V domains shown, only the CDRs are; also called MM24T重组抗体; MM24T抗体) VH: QIQLVQSGPELKKPGETVKISCKASGYTFTNYGMNWVKQAPGKGLKLMGWINTYTGKPTYADDFKGRFAFSLETSASTAYLQLNNLKNEDTATYFCATNYYDYDIAYWGQGTLVAVSA VL: DIVMTQAAFSNPVTLGTSASISCRSSKSLLHSNGITYLYWFLQKPGQSPQVLIYQMSNLASGVPDRFSSSGSGTDFTLRISRVEAEDVGVYYCAQTLELPTFGGGTKLEIKR | no binding (tested: antibody 1μg/mL; coating 0.1、1、5μg/mL) | –
3 | binds | MM21T (antibody, mouse IgG1, kappa, V domains shown, only the CDRs are; also called MM21T重组抗体; MM21T抗体) VH: QIQLVQSGPELKKTGETVKMSCKASGYTFTNYGMNWVKQAPGKGLKLMGWINTYTGKPTYADDFKGRFAFSLETSASTAYLQINNLKNEDTATYFCATNYYDYDVAYWGQGTLVTVSA VL: DIVMTQAAFSNPVTLGTSASISCRSSKSLLHSNGITYLYWFLQKPGQSPQVLIYQMSSLASGVPDRFSSSGSGTDFTLRISRVEAEDVGVYYCAQTLELPTFGGGTKLEIKR | no binding (tested: antibody 1μg/mL; coating 0.1、1、5μg/mL) | –
4 | – | MM24H (antibody, V domains shown, also called MM24H鼠源单克隆抗体) VH: QIQLVQSGPELKKPGETVKISCKASGYTFTNYGMNWVKQAPGKGLKLMGWINTYTGKPTYADDFKGRFAFSLETSASTAYLQLNNLKNEDTATYFCATNYYDYDIAYWGQGTLVAVSA VL: DIVMTQAAFSNPVTLGTSASISCRSSKSLLHSNGITYLYWFLQKPGQSPQVLIYQMSNLASGVPDRFSSSGSGTDFTLRISRVEAEDVGVYYCAQTLELPTFGGGTKLEIK | – | binding result (蛋白A [5]): binds; binding result (蛋白B [6]): no binding
